The test addresses T1, murine PD-L1 (murine, UniProt Q9EP73 19-238, limits assumed).
T1 construct: also called PD-Ll; mouse target protein
Briefly: not described; stated in Example 1.

This note sets out measurements from patent WO2017205216A1 (dated 2017).

T1 sequence (Q9EP73 19-238 limits assumed): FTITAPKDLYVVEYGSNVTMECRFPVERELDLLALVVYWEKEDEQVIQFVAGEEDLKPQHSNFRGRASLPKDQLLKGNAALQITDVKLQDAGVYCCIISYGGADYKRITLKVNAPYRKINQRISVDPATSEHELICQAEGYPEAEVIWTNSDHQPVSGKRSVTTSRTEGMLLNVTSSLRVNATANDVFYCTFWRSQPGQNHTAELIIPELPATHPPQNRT

B1: anti-murine PD-L1 clone 178G7 (antibody, V domains shown)
VH: QVQLQQSGADLAKPGSSVKISCKASGYNFNSYYINWIKQTTGQGLEYIGYINTVSGTTKYSEKFKGKATLTVDKSSSTAFMQLSSLTPDDSAVYYCARGTIVLDDYWGQGVKVTVSS
VL: DIVMTQTPSSQAVSAGEKVTMSCKSSQSLLYNEKKKNYLAWYQQKPGQSPKLLIYWASTRESGVPDRFLGSGSGTDFTLTINSVQAEDLAVYYCQQSYDFPRTFGGGTKLELKR
notes: also called anti-PD-L1 antibody; anti-PD-L1 therapy
As for B1, the binding result is “binds”.
